For assay [1], the target named is Nucleolysin TIA-1 (endogenous mouse TIA1) (mouse) (UniProt P52912). Put plainly: TIA1 IP-MS, WT1 cortex.
Assay [2] shares this target. Put plainly: TIA1 IP-MS, WT2 cortex.
For assay [3] the target is unchanged. As to the kind of experiment: TIA1 IP-MS, WT3 cortex.
Assay [4] shares this target. As to the kind of experiment: TIA1 IP-MS, tau KO 1 cortex.
The target is the same in assay [5]. As to the kind of experiment: TIA1 IP-MS, tau KO 2 cortex.
The target is the same in assay [6]. Put plainly: TIA1 IP-MS, tau KO 3 cortex.

Sequence of UniProt P52912 (P52912 whole entry): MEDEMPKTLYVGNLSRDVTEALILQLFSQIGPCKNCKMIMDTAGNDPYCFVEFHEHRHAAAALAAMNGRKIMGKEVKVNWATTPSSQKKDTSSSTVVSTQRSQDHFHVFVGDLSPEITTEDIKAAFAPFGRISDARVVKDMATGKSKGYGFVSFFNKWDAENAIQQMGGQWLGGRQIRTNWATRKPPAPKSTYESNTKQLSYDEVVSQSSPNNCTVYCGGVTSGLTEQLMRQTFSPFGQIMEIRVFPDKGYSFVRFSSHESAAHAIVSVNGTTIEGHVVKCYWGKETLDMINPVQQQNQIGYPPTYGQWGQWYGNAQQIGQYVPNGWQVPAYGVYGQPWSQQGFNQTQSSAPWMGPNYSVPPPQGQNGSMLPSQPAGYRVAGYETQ

As to “26S proteasome non-ATPase regulatory subunit 8 (from UniProt Q9CX56 1-353)”, the total ion current (normalized to TIA1 = 1000) in assay [1] is 80.3; in assay [2], 0; in assay [3], 0; in assay [4] it was 4.11; in assay [5] it was 0; in assay [6] it was 0.

In the case of “28 kDa heat- and acid-stable phosphoprotein (from UniProt Q3UHX2 1-181)”, the total ion current (normalized to TIA1 = 1000) worked out at 0 in assay [1]; 86 in assay [2]; 0 in assay [3]; 0 in assay [4]; 15.7 in assay [5]; 0 in assay [6].

With “39S ribosomal protein L46, mitochondrial (from UniProt Q9EQI8 1-283)”, the total ion current (normalized to TIA1 = 1000) in assay [1] amounted to 0; in assay [2], 52.7; in assay [3] it was 0; in assay [4] it was 0; in assay [5], 0; in assay [6] it was 0.

Regarding “AP-2 complex subunit alpha-2 (from UniProt P17427 1-938)”, the total ion current (normalized to TIA1 = 1000) in assay [1] came to 0; in assay [2], 128; in assay [3], 68.8; in assay [4], 0; in assay [5] it was 186; in assay [6], 0.

On to “ATP synthase subunit O, mitochondrial (from UniProt Q9DB20 24-213)”, for which the total ion current (normalized to TIA1 = 1000) in assay [1] stood at 0; in assay [2], 375; in assay [3], 0; in assay [4], 0; in assay [5], 0; in assay [6], 0.

Take “ATP-dependent 6-phosphofructokinase, platelet type (from UniProt Q9WUA3 1-784)”: the total ion current (normalized to TIA1 = 1000) in assay [1] amounted to 0; in assay [2] it was 20.2; in assay [3], 0; in assay [4], 0; in assay [5], 67.1; in assay [6], 0.

For the substance “Acetyl-CoA acetyltransferase, mitochondrial (from UniProt Q8QZT1 31-424)”, the total ion current (normalized to TIA1 = 1000) in assay [1] amounted to 0; in assay [2], 175; in assay [3], 18.1; in assay [4], 0; in assay [5], 70.3; in assay [6], 0.

In the case of “Aconitate hydratase, mitochondrial (from UniProt Q99KI0 28-780)”, the total ion current (normalized to TIA1 = 1000) in assay [1] was determined as 0; in assay [2], 818; in assay [3] it was 164; in assay [4], 0; in assay [5], 421; in assay [6], 0.

Regarding “Alpha-actinin-4 (from UniProt P57780 1-912)”, the total ion current (normalized to TIA1 = 1000) in assay [1] amounted to 0; in assay [2], 77; in assay [3], 14.5; in assay [4], 0; in assay [5], 28.8; in assay [6], 0.

As for Amphiphysin (from UniProt Q7TQF7 1-686), the total ion current (normalized to TIA1 = 1000) in assay [1] was determined as 0; in assay [2], 113; in assay [3], 0; in assay [4], 0; in assay [5], 0; in assay [6], 0.

Annexin A7 (from UniProt Q07076 1-463): the total ion current (normalized to TIA1 = 1000) in assay [1] was 0; in assay [2], 42.4; in assay [3], 44.8; in assay [4] it was 0; in assay [5] it was 71.9; in assay [6], 1120.

“Aspartate aminotransferase, cytoplasmic (from UniProt P05201 2-413)”: the total ion current (normalized to TIA1 = 1000) in assay [1] turned out to be 0; in assay [2], 204; in assay [3] it was 17; in assay [4], 0; in assay [5], 136; in assay [6], 0.

For the substance “Band 4.1-like protein 2 (from UniProt O70318 2-988)”, the total ion current (normalized to TIA1 = 1000) in assay [1] turned out to be 16.7; in assay [2] it was 0; in assay [3], 0; in assay [4] it was 25.8; in assay [5], 0; in assay [6], 0.

On to “CaM kinase-like vesicle-associated protein (from UniProt Q3UHL1 1-512)”, for which the total ion current (normalized to TIA1 = 1000) in assay [1] came to 0; in assay [2], 92.1; in assay [3], 0; in assay [4], 0; in assay [5], 0; in assay [6], 0.

“Calcium-binding mitochondrial carrier protein Aralar1 (from UniProt Q8BH59 2-677)”: the total ion current (normalized to TIA1 = 1000) in assay [1] turned out to be 0; in assay [2], 181; in assay [3], 21.6; in assay [4], 0; in assay [5] it was 231; in assay [6] it was 0.

As to “Calcium-transporting ATPase (from UniProt Q6Q477 1-1205)”, the total ion current (normalized to TIA1 = 1000) in assay [1] was determined as 0; in assay [2], 274; in assay [3], 0; in assay [4], 0; in assay [5], 144; in assay [6], 0.

For “Carbonic anhydrase 2 (from UniProt P00920 2-260)”, the total ion current (normalized to TIA1 = 1000) in assay [1] is 0; in assay [2], 38.6; in assay [3], 50.1; in assay [4], 0; in assay [5], 58.4; in assay [6], 0.

Take “Catenin beta-1 (from UniProt Q02248 2-781)”: the total ion current (normalized to TIA1 = 1000) in assay [1] worked out at 9.46; in assay [2], 0; in assay [3], 0; in assay [4] it was 123; in assay [5], 0; in assay [6], 0.

Regarding “Centromere protein V (from UniProt Q9CXS4 1-252)”, the total ion current (normalized to TIA1 = 1000) came to 0 in assay [1]; 234 in assay [2]; 106 in assay [3]; 0 in assay [4]; 108 in assay [5]; 0 in assay [6].

Regarding “Clathrin heavy chain 1 (from UniProt Q68FD5 2-1675)”, the total ion current (normalized to TIA1 = 1000) in assay [1] amounted to 0; in assay [2], 58.5; in assay [3] it was 0; in assay [4], 0; in assay [5], 45.2; in assay [6], 0.

For “Clathrin light chain A (from UniProt O08585 1-235)”, the total ion current (normalized to TIA1 = 1000) in assay [1] stood at 0; in assay [2], 90.8; in assay [3], 145; in assay [4] it was 0; in assay [5], 29; in assay [6] it was 0.

“Cleavage and polyadenylation specificity factor subunit 6 (from UniProt Q6NVF9 1-551)”: the total ion current (normalized to TIA1 = 1000) in assay [1] came to 0; in assay [2] it was 147; in assay [3], 0; in assay [4], 0; in assay [5], 76.2; in assay [6], 0.

On to “Cluster of Phosphatidylinositol 5-phosphate 4-kinase type-2 alpha (from UniProt O70172 2-405)”, for which the total ion current (normalized to TIA1 = 1000) was 0 in assay [1]; 75.3 in assay [2]; 18.8 in assay [3]; 0 in assay [4]; 6.9 in assay [5]; 0 in assay [6].
